For assay [1], the target named is ZDIII-WT, soluble purified protein with C-terminal SpyTag (Zika virus H/PF/2013, UniProt A0A024B7W1). Briefly: ELISA. On the technique in general: In an ELISA, binding on a coated surface is turned into a signal by an enzyme label.
Assay [2] has as its target ZDIII-WT as used in BLI (taken as the His6-MBP-ZDIII-WT fusion protein) (Zika virus H/PF/2013, UniProt A0A024B7W1). Kind of assay: BLI.
Assay [3] has as its target MBP alone (negative control in BLI) (Escherichia coli K12, UniProt P0AEX9 = MBP). Briefly: BLI. (Biolayer interferometry detects binding as a change in optical thickness at a sensor tip.)

UniProt A0A024B7W1, sequence (A0A024B7W1 whole entry, looked up, the tested form may be a part): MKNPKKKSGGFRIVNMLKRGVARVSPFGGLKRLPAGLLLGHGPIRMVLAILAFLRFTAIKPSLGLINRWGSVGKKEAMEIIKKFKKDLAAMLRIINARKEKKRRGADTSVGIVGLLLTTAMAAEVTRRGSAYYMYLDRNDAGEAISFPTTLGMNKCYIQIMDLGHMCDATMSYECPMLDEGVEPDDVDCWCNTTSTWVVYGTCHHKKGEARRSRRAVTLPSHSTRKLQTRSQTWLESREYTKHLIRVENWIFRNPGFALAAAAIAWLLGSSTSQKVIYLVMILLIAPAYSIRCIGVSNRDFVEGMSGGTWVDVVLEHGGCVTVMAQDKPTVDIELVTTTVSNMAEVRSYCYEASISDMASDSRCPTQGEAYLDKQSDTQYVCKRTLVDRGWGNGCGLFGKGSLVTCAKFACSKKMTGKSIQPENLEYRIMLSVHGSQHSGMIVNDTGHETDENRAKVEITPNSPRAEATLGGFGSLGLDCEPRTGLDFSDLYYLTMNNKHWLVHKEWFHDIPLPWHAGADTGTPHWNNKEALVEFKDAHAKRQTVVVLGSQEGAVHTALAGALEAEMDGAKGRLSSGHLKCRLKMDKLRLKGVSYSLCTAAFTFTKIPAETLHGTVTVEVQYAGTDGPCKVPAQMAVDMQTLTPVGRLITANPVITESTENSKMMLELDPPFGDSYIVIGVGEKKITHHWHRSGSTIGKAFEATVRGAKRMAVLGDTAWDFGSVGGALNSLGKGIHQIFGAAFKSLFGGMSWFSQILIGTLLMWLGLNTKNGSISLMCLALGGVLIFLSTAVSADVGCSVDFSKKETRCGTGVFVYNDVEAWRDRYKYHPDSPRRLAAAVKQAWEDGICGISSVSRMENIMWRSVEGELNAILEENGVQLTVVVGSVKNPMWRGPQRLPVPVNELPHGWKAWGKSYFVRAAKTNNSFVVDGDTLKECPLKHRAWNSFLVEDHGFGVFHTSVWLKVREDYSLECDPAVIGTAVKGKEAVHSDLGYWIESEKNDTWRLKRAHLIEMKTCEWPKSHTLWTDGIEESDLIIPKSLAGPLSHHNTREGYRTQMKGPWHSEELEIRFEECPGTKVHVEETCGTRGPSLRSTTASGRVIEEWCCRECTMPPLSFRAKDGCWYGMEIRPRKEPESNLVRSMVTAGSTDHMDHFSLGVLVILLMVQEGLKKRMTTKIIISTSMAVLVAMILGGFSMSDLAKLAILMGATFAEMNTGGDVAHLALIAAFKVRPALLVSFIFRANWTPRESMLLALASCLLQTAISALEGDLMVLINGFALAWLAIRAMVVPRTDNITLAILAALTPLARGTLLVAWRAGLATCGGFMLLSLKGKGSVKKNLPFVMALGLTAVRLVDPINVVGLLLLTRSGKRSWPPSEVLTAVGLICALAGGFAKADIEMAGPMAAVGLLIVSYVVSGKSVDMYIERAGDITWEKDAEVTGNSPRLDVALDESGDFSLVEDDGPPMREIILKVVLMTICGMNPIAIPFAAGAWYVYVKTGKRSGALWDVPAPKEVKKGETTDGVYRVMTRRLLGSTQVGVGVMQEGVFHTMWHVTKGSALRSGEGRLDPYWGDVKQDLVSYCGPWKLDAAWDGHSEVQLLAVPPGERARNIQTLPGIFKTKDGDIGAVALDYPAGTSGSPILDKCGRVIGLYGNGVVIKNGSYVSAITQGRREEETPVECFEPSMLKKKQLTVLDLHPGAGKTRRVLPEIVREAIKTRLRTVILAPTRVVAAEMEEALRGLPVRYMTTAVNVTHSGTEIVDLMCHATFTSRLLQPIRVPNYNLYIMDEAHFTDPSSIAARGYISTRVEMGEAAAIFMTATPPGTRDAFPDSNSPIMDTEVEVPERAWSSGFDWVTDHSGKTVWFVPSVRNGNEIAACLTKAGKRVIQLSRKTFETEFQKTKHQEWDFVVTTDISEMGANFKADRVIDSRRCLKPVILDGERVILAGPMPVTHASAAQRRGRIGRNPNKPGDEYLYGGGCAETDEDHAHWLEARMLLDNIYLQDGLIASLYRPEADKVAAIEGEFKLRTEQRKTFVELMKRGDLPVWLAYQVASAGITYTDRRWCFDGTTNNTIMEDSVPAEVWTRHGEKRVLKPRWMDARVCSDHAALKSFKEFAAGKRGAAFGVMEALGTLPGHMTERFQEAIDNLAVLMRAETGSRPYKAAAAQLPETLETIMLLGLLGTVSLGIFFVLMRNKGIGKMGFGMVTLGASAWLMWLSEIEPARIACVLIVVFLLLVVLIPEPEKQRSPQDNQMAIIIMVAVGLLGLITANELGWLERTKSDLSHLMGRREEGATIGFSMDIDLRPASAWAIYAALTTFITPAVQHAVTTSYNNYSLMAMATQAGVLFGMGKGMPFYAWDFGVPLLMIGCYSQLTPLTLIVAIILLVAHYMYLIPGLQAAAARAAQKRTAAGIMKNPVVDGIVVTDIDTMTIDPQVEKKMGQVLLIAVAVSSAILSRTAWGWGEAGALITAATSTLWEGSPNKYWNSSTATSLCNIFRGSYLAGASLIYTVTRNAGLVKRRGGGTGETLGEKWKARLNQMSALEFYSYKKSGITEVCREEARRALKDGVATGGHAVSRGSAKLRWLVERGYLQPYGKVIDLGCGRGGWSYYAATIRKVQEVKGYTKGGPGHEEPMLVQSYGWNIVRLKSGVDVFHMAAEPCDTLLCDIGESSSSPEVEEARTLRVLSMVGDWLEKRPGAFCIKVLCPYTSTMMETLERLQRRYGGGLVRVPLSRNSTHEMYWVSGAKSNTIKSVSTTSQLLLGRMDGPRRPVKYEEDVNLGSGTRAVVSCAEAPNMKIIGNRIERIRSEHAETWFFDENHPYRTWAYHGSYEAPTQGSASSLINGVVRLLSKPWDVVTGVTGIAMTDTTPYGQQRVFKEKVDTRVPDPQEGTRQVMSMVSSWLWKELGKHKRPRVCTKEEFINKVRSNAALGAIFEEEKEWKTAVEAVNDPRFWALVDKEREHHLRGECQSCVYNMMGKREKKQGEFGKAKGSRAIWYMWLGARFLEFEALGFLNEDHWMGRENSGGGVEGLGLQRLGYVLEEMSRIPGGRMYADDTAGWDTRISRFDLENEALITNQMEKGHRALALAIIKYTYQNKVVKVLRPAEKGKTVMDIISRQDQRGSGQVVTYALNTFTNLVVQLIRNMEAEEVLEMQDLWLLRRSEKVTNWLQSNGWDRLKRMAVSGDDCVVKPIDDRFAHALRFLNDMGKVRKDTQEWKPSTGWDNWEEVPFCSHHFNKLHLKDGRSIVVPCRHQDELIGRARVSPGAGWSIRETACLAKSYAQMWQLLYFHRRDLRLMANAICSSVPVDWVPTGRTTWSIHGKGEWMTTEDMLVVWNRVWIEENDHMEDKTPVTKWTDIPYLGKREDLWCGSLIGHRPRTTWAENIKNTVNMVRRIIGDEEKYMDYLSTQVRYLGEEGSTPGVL

B1: mAb ZV-67 (antibody, V domains shown)
VH: QAQLQQSGTGLARPGASVKLSCKASGYTFTSYGISWVTQRAGQGLEWIGVIYPRSGNTYYNEKFRGKATLTADKSSSSAYMELRGLTAEDSAVYFCARENYGSVYWGQGTTLTVSS
VL: DIVMTQSQKFMSTSVGDRVSITCKASQNVGTAVAWYQQKPGQSPKLLIYSASNRYTGVPDRFTGSGSGTDFTLTISNMQSEDLADYFCQQFSSYPYTFGGGTKLEIK
In general, EC50 refers to the midpoint of the concentration-response curve. A high value points to lower potency in that assay. Broadly, the Kd is the equilibrium constant for the complex coming apart. Read a high Kd as lower affinity. In the case of B1, the EC50 in assay [1] is 0.014 µM. The molecule further had a dissociation constant Kd in assay [2] of 0.043 ± 0.0011 µM. In addition, the binding result in assay [3] is listed as “no binding”.

B2: mAb ZV-2 (antibody, V domains shown)
VH: QVQLQESGAELMKPGASVKLSCKTSGYTFIGYWIEWLKQRPGHGLEWVGEIFPGSGRTKYNEKFKGRATFTADTSSNMAYMQLSSLTTEDSAIYYCARYYYGSYYALDYWGQGTSVTVSS
VL: DIVMTQSPSSLSVSAGEKVTLSCKSSQSLLHSGNQKNYLAWYQQKPGQAPKLLIYGASTRESGVPDRFTGSGSGTDFTLTISSVQAEDLAVYYCQNDHSYPLTFGAGTKLELK
As to B2, the affinity in assay [2], expressed as Kd, was 0.0107 ± 9e-05 µM. The binding result in assay [3] is listed as “no binding”.

The values above are taken from paper PMC9133142 (Cell chemical biology, 2022).
